From PMC2270309, “Insights into Mad2 Regulation in the Spindle Checkpoint Revealed by the Crystal Structure of the Symmetric Mad2 Dimer” (PLoS Biology, 2008)

How the values were obtained:
[1] = target: His6-O-Mad2^ΔN10 (human); assay: SEC; gel filtration of the high-salt peak (Q2) of anion exchange chromatography (holds the C-Mad2 conformer)
[2] = target: Mad2^Y156A (in the background of R133A) (human, UniProt Q13257 1-205, Y156A | R133A); assay: ITC
[3] = target: Mad2^L13A,R133A double mutant (human, UniProt Q13257 1-205, L13A | R133A); assay: ITC
[4] = target: Mad2^R133A (human, UniProt Q13257 1-205, R133A); assay: ITC
[5] = target: Mad2^L153A (in the background of R133A) (human, UniProt Q13257 1-205, L153A | R133A); assay: ITC
[6] = target: Human Cdc20 (human, UniProt Q12834 1-499); assay: cell-based or functional assay
Human Cdc20, sequence (Q12834 whole entry): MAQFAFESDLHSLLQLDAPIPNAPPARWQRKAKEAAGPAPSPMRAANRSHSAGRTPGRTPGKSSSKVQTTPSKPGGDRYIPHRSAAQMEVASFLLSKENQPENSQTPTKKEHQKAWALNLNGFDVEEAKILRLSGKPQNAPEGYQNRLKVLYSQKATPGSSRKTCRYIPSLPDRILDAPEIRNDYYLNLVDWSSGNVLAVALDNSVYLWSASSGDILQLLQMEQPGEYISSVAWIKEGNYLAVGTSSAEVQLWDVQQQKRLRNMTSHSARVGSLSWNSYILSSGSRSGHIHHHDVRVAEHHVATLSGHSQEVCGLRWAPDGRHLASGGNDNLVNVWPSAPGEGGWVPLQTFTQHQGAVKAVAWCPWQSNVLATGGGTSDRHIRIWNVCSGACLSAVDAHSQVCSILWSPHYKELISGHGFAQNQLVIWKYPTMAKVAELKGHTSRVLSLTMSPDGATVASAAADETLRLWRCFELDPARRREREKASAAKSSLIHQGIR

[7] = target: the molecule itself; assay: SEC; gel filtration of the high-salt peak (Q2) of anion exchange chromatography (holds the C-Mad2 conformer)
[8] = target: the molecule itself; assay: AUC; sedimentation equilibrium at 4 °C; 0.23, 0.36 and 0.50 mg/ml; 20 mM Tris pH 8.0, 50 mM NaCl, 0.2 mM TCEP; 13,000, 17,500 and 25,000 rpm; global fit to a monomer-dimer equilibrium; dimer to monomers

“untagged C-Mad2^ΔN10 (domain or fragment)” gave a stoichiometry N [1] of 1.

B1: Mad2-binding motif of Cdc20 (domain or fragment)
chain: EHQKAWALNLNGFDVEEAKILRLSGKPQ
modifications: Limits not printed. 111-138 is the conventional Mad2-binding fragment of human Cdc20 around the KILR motif (129-132). Check residues come from the candidate's motif feature, not from the paper.
For B1, the Kd [2] was 560 nM, the Kd [3] was 120 nM and the Kd [4] was 140 nM. It also gave a Kd [5] of 210 nM.

B2: Mad2^L13A,C79S,C106S triple mutant (natural protein, human, UniProt Q13257 1-205, looked up)
chain: MALQLSREQGITARGSAEIVAEFFSFGINSILYQRGIYPSETFTRVQKYGLTLLVTTDLELIKYLNNVVEQLKDWLYKSSVQKLVVVISNIESGEVLERWQFDIESDKTAKDDSAPREKSQKAIQDEIRSVIRQITATVTFLPLLEVSCSFDLLIYTDKDLVVPEKWEESGPQFITNSEEVRLRSFTTTIHKVNSMVAYKIPVND
notes: Mad2, human, coding region (205 residues), with L13A, C79S and C106S; also called Mad2^L13A dimer; symmetric C–C Mad2 dimer; source: E. coli BL21 (pGEX), purified (glutathione-Sepharose, TEV cleavage, anion exchange, gel filtration)
In the case of B2, the “inhibition of APC/C^Cdc20 in an in vitro reconstituted APC/C ubiquitination assay (Myc-cyclin B1); Mad2 dimers at 1–16 μM preincubated with Cdc20 for 30 min” value [6] is reported as about 3 fold, the “stoichiometry N” value [7] is reported as 2 and the Kd [8] is reported as 250 nM. The “stoichiometry N” value [8] was about 2.
